Assay: label from the status in PepcDB records

Sequence	protein production
MSLLTLAFNPQPRAKTYCSGPILRVSGVWAVKILYIVLDGAADSPTSPRKTLEEASKPNIDSLGSHAVCGMVYTVKPGVAPQSDYATLSLLGYNPDEYYPGRGPLEAFGAGIEMRRGDIALRANFATVDPGTLRIIDRRVGRSLTSREARELASAVDGMELEDGEGTALFRATIGHRGVLVLRHRSKPLSDAISNTDPAYERRGRFSVALEKYEPFIKLSNPLVEDEAAVLAARMLNEFTLKAVEILDSHPVNLAREKRGLLKANAILSRDAGGLPEEKPPSFQERFGLRGASIVEMVVERGISRYIGLDDIRVEIEGRAREEVYREEAARAVEALETHDLVYVHLKGPDEPGHDGSFEGKIRAVEDIDKHFFAPLLDRLSSAGLEPAFVVTSDHATPWDVGAHSGDPVPLMISHQSIQGSIGKFSETVCLRGRLGTIIGGYRIIPKTLSLLAGLEHHHHHH	not failed
MSLNGSSIIEFEDMTWSQQVEDSKKPVVVMFYSPACPYCKAMEPYFEEYAKEYGSSAVFGRINIATNPWTAEKYGVQGTPTFKFFCHGRPVWEQVGQIYPSILKNAVRDMLQHGEECIRKSTPVGQDITGYVEGHHHHHH	not failed
MSLNILVIGTGAIGSFYGALLAKTGHCVSVVARSDYETVKAKGIRIRSATLGDYTFRPAAVVRSAAELETKPDCTLLCIKVVEGADRVGLLRDAVAPDTGIVLISNGIDIEPEVAAAFPDNEVISGLAFIGVTRTAPGEIWHQAYGRLMLGNYPGGVSERVKTLAAAFEEAGIDGIATENITTARWQKCVWNAAFNPLSVLSGGLDTLDILSTQEGFVRAIMQEIRAVAAANGHPLPEDIVEKNVASTYKMPPYKTSMLVDFEAGQPMETEVILGNAVRAGRRTRVAIPHLESVYALMKLLELRTSKSLWGNEGHHHHHH	not failed
MSLNRHFTVSVFIVCKDKVLLHLHKKAKKMLPLGGHIEVNELPEEACIREAKEEAGLNVTLYNPIDINLKKSCDLSGEKLLINPIHTILGDVSPNHSHIDFVYYATTTSFETSPEIGESKILKWYSKEDLKNAHNIQENILVMATEALDLLEGHHHHHH	not failed
MSLNVIDLFSGVGGLSLGAARAGFDVKMAVEIDQHAINTHAINFPRSLHVQEDVSLLNAEIIKGFFKNDMPIDGIIGGPPCQGFSSIGKGNPDDSRNQLYMHFYRLVSELQPLFFLAENVPGIMQEKYSGIRNKAFNLVSGDYDILDPIKVKASDYGAPTIRTRYFFIGVKKSLKLDISDEVFMPKMIDPVTVKDALYGLPDIIDANWQSDSESWRTIKKDRKGGFYEKLWGQIPRNVGDTESIAKLKNNIISGCTGTLHSKIVQERYASLSFGETDKISRSTRLDPNGFCPTLRAGTARDKGSFQAVRPIHPYHPRVITPREAARLQGFPDWFRFHVTKWHSFRQIGNSVSPIVAEYILKGLYNLLNEGHHHHHH	not failed
MSLNVQTVAVIGSGTMGAGIAEVAASHGHQVLLYDISAEALTRAIDGIHARLNSRVTRGKLTAETCERTLKRLIPVTDIHALAAADLVIEAASERLEVKKALFAQLAEVCPPQTLLTTNTSSISITAIAAEIKNPERVAGLHFFNPAPVMKLVEVVSGLATAAEVVEQLCELTLSWGKQPVRCHSTPGFIVNRVARPYYSEAWRALEEQVAAPEVIDAALRDGAGFPMGPLELTDLIGQDVNFAVTCSVFNAFWQERRFLPSLVQQELVIGGRLGKKSGLGVYDWRAEREAVVGLEAVSDSFSPMKVEKKSDGVTEIDDVLLIETQGETAQALAIRLARPVVVIDKMAGKVVTIAAAAVNPDSATRKAIYYLQQQGKTVLQIADYPGMLIWRTVAMIINEALDALQKGVASEQDIDTAMRLGVNYPYGPLAWGAQLGWQRILRLLENLQHHYGEERYRPCSLLRQRALLESGYESEGHHHHHH	not failed
MSLPGLSAAADQTIKIGAQSMSESEIIASMLGQLIEHHTDLKTTTIKNLGSNAVQQQALMNGEIDIAATRYTGDALTGTLRMEPEKDPDKALALTQREFKKRYDLKWYDSYGFDNTYAFTVSKELADQYHLETVSDVKKWAPQLKLGVDNYWMKLKGNGYQDFTKTYGMTFGGTYPMQIGLVYDAVKSGKMDIVLAYSTDGRIKSYGLKMLKDDKQFFPPYDCSPVVPEKVLKEHPELEGIIKKMLGKIDTATMQELNYEVDGNLKEPSVVAKEYLEKHRYFESLEHHHHHH	not failed
MSLPTEMHHNLGAEKRSAVATTIDSFKERSQKVRALSDPNVRFVPFFGSSEWLRFDGAHPAVLAEKYNRSYRPYLLGQGGAASLNQYFGMQQMLPQLENKQVVYVISPQWFSKNGYDPAAFQQYFNGDQLTSFLKHQSGDQASQYAATRLLQQFPNVAMKDLVQKLASKEELSTADNEMIELLARFNERQASFFGQFSVRGYVNYDKHVAKYLKILPDQFSYQAIEDVVKADAEKNTSNNEMGMENYFYNEQIKKDLKKLKDSQKSFTYLKSPEYNDLQLVLTQFSKSKVNPIFIIPPVNKKWMDYAGLREDMYQQTVQKIRYQLESQGFTNIADFSKDGGEPFFMKDTIHLGWLGWLAFDKAVDPFLSNPTPAPTYHLNERFFSKDWATYDGDVKEFQEGHHHHHH	not failed
MSLQENISVTDSYSTGNAAQAMLEKLLQIYDVKMLVAQLNGVGENHWSAAILKRALANDSAWHRLSEKEFAHLQTLLPKPPEHHPHYAFRFIDLFAGIGGIRRGFESIGGQCVFTSEWNKHAVRTYKANHYCDPATHHFNEDIRDITLSHQEGVSDEAAAEHIRQHIPEHDVLLAGFPCQPFSLAGVSKKNSLGRAHGFACDTQGTLFFDVVRIIDARRPAMFVLENVKNLKSHDKGKTFRIIMQTLDELGYDVADAEDNGPDDPKIIDGKHFLPQHRERIVLVGFRRDLNLKADFTLRDISECFPAQRVTLAQLLDPMVEAKYILTPVLWKYLYRYAKKHQARGNGFGYGMVYPNNPQSVTRTLSARYYKDGAEILIDRGWDMATGEKDFDDPLNQQHRPRRLTPRECARLMGFEAPGEAKFRIPVSDTQAYRQFGNSVVVPVFAAVAKLLEPKIKQAVALRQQEAQHGRRSREGHHHHHH	not failed
MSLQTLLFSFQGRIGRQAFWLWNICYYAMIAGFAMGSNLLFPDVAHLILPVFLLVVLVPDLAITAKRWHDRDKSSWWLLLNVPLVIGRMTIPAGELAVNTQPGMLETLISFVALLCGAWILVECGFLSGTDGSNRFGAEPKWIKKS	failed
MSLQTRKQREDAKREAWKKERQEKKALEAQQDSVSYVQAINALKNGSFVLEADNVVFRNGIMRFVSSNTNYVEVNDGQGIIQTAFTNFVYNWSPNGLGGVTVQGNVNGISMRQDKDGNVYYNYGINGIAVSATVSIVLTGGTNQASVTINPNFSGNTLTMNGYLVPYNEGHHHHHH	not failed
MSLRAELNQGLIDFLKASPTPFHATASLARRLEAAGYRRLDERDAWHTETGGRYYVTRNDSSLIAIRLGRRSPLESGFRLVGAHTDSPCLRVKPNPEIARNGFLQLGVEVYGGALFAPWFDRDLSLAGRVTFRANGKLESRLVDFRKAIAVIPNLAIHLNRAANEGWPINAQNELPPIIAQLAPGEAADFRLLLDEQLLREHGITADVVLDYELSFYDTQSAAVVGLNDEFIAGARLDNLLSCHAGLEALLNAEGDENCILVCTDHEEVGSCSHCGADGPFLEQVLRRLLPEGDAFSRAIQRSLLVSADNAHGVHPNYADRHDANHGPALNGGPVIKINSNQRYATNSETAGFFRHLCQDSEVPVQSFVTRSDMGCGSTIGPITASQVGVRTVDIGLPTFAMHSIRELAGSHDLAHLVKVLGAFYASSELEGHHHHHH	not failed
MSLRILIVDDEKLTRDGLIANINWKALSFDQIDQADDGINAIQIALKHPPNVLLTDVRMPRMDGIELVDNILKLYPDCSVIFMSGYSDKEYLKAAIKFRAIRYVEKPIDPSEIMDALKQSIQTVLQHQAQQDSEGHHHHHH	not failed
MSLRPQTSFIFDLDGTLTDSVYQNVAAWKEALDAENIPLAMWRIHRKIGMSGGLMLKSLSRETGMSITDEQAERLSEKHAQAYERLQHQIIALPGAVELLETLDKENLKWCIATSGGIDTATINLKALKLDINKINIVTRDDVSYGKPDPDLFLAAAKKIGAPIDECLVIGDAIWDMLAARRCKATGVGLLSGGYDIGELERAGALRVYEDPLDLLNHLDEIASREGHHHHHH	not failed
MSLSAQADARPTPAPSFSGVTVDGKPFSSASLKGKAYIVNFFATWCPPCRSEIPDMVQVQKTWASRGFTFVGIAVNEQLPNVKNYMKTQGIIYPVMMATPELIRAFNGYIDGGITGIPTSFVIDASGNVSGVIVGPRSKADFDRIVKMALGAKAATKEGHHHHHH	not failed
MSLSDAVNKHPKSPNPQLCAVTLLGNLVATPDIRYRANPATAVTEIVLATSSKWLDKITNKYKEWTSYHHVKVEGELVELALLNANKGDIILLHGYLSNIKPKSTDKSTNHLGIVHANFVQKFEKGYTQAINQIHCSAQLTSKPKLMLTEQNKNITQANIVINQHIYNTDKQAWQTISVERAIHVWGKQAQYLAEHGDIGDELMLEGKLSYTSGVSKDQFIEVKNVHLFKGTLEHHHHHH	not failed
MSLSDLLYEIQDKVGLLTMNRISKHNAFDNQLLTEMRIRLDSAINDTNVRVIVLKANGKHFSAGADLTWMQSMANFTEEENLEDSLVLGNLMYSISQSPKPTIAMVQGAAFGGGAGLAAACDIAIASTSARFCFSEVKLGLIPAVISPYVVRAIGERAAKMLFMSAEVFDATRAYSLNLVQHCVPDDTLLEFTLKYASQISNNAPEAVKNSKQLAQYVANKKIDEELVRYTASLIAHKRVSDEGQEGLKAFLNKEIPNWNEGHHHHHH	not failed
MSLSGALKENSGKPSEVEYTHFKDLQALEMERGRLYETIVVTWDDSMVGNAAPIGVLCTGDDTVTLYLYQGTRTVENVLNNGRFTVNVTLDPLIFTDSTLGDLEEDMFSHYRDFLHLRGADAFFTAEVVSVKKLVKRDRFGESELHVVKARAGDVMRAESFRMALNRGIYAVIESLIAYTRAEFSDPLVLRERIAEMNRVARKVGGPREKEAMRRIIQALESKISEGHHHHHH	not failed
MSLSKILIAGCGDLGLELARRLTAQGHEVTGLRRSAQPMPAGVQTLIADVTRPDTLASIVHLRPEILVYCVAASEYSDEHYRLSYVEGLRNTLSALEGAPLQHVFFVSSTGVYGQEVEEWLDEDTPPIAKDFSGKRMLEAEALLAAYSSTILRFSGIYGPGRLRMIRQAQTPEQWPARNAWTNRIHRDDGAAFIAYLIQQRSHAVPERLYIVTDNQPLPVHDLLRWLADRQGIAYPAGATPPVQGNKKLSNARLLASGYQLIYPDYVSGYGALLAAMREGHHHHHH	not failed
MSLSKKIAVIGECMIELSEKGADVKRGFGGDTLNTSVYIARQVDPAALTVHYVTALGTDSFSQQMLDAWHGENVDTSLTQRMENRLPGLYYIETDSTGERTFYYWRNEAAAKFWLASEQSAAICEELANFDYLYLSGISLAILSPTSREKLLSLLRECRAKGGKVIFDNNYRPRLWASKEETQQVYQQMLECTDIAFLTLDDEDALWGQQPVEDVIARTHNAGVKEVVVKRGADSCLVSIAGEALVDVPAVKLPKEKVIDTTAAGDSFSAGYLAVRLTGGSAENAAKRGHLTASTVIQYRGAIIPREAMPAEGHHHHHH	not failed
MSLSLIKVGLVGIGAQMQENLLPSLLQMQDIRIVAACDSDLERARRVHRFISDIPVLDNVPAMLNQVPLDAVVMAGPPQLHFEMGLLAMSKGVNVFVEKPPCATLEELETLIDAARRSDVVSGVGMNFKFARPVRQLREMTQVDEFGETLHIQLNHYANKPRAPLWGLDSTLRSFLLAQAIHTIDLAITFGDGELRRVQSSVQRHDDALIVRADMAFSSGATASLLAGTSFPYFEFDMKLVSSSSTLVELDNLWNITLHEPEHATRPTGAAKRWRGAWQPGPLDSGYERSGYHGELHQFFQAIREHRRFEADFASLLPTYRVIEEICSADAVAQGLQNAHSRIRTGIESLSEGHHHHHH	not failed

Reference: a protein production outcome set (Wang et al. 2014)
